In paper PMC4772974 (EMBO Reports, 2016):

What was measured:
Cep290 = Cep290 (UniProt O15078); test: GFP-Trap co-IP, immunoblot; details: reference: EGFP-PCM1-WT*; sites S372
BBS4 = BBS4 (UniProt Q96RK4); test: GFP-Trap co-IP, immunoblot; details: reference: EGFP-PCM1-WT*; sites S372
PCM1 = PCM1 (UniProt Q15154); test: RFP-Trap co-IP, mCherry-PCM1 with EGFP-PCM1; details: reference: mCherry-PCM1-WT* with EGFP-PCM1-WT*; sites S372
His‐PCM1 (a.a. 1–1,128) = target: T1, His‐PCM1 (a.a. 1–1,128) (human, UniProt Q15154 1-1128); test: pull-down; MBP-Plk4 on Dynabeads Protein G coupled with anti-MBP antibody; 8 μg His-PCM1(1128) in 600 μl binding buffer (50 mM Tris-HCl pH 7.5, 200 mM NaCl, 2 mM MgCl2, 0.5 mg/ml BSA, 0.05% NP-40), 4°C, 2 h; Coomassie and anti-His blot; details: both partners purified
T1 sequence (looked up): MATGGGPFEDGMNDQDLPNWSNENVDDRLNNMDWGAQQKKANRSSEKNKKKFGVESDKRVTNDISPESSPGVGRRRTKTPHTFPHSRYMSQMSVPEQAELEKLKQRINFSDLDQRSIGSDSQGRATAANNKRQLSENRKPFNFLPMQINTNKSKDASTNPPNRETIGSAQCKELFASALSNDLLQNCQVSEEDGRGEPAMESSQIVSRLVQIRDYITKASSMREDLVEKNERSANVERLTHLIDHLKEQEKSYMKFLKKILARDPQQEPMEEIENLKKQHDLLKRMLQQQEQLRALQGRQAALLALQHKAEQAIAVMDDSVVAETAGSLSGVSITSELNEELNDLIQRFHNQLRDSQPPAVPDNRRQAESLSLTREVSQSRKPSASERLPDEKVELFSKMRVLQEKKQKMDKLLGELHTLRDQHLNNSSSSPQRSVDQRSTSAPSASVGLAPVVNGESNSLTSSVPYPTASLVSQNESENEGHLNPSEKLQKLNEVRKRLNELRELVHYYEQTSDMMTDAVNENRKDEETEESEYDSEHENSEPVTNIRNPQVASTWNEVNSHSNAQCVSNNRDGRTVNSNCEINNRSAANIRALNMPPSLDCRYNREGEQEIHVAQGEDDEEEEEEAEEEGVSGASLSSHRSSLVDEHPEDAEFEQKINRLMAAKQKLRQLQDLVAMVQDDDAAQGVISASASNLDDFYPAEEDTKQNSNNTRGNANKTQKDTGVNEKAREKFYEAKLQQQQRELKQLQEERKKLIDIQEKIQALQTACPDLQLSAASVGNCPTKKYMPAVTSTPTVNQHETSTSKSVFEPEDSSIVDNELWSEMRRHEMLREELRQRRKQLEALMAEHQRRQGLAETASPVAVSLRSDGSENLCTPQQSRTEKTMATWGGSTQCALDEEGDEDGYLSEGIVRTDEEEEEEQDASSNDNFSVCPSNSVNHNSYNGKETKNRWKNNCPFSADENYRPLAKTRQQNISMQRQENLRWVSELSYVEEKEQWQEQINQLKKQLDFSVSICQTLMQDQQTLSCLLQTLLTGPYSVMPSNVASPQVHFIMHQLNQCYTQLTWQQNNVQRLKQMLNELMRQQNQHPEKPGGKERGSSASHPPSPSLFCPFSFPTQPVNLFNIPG

“PCM1 (from UniProt Q15154) EGFP-PCM1-S372A*” was tested, and the “binding against the reference” value (Cep290) was “weaker” and the “binding against the reference” value (BBS4) was “weaker”.

For “PCM1 (from UniProt Q15154) mCherry-PCM1-S372A* with EGFP-PCM1-WT*”, the “binding against the reference” value (PCM1) was “weaker”.

B1: MBP‐Plk4‐WT (enzyme, UniProt O00444 1-970, looked up)
chain: MATCIGEKIEDFKVGNLLGKGSFAGVYRAESIHTGLEVAIKMIDKKAMYKAGMVQRVQNEVKIHCQLKHPSILELYNYFEDSNYVYLVLEMCHNGEMNRYLKNRVKPFSENEARHFMHQIITGMLYLHSHGILHRDLTLSNLLLTRNMNIKIADFGLATQLKMPHEKHYTLCGTPNYISPEIATRSAHGLESDVWSLGCMFYTLLIGRPPFDTDTVKNTLNKVVLADYEMPSFLSIEAKDLIHQLLRRNPADRLSLSSVLDHPFMSRNSSTKSKDLGTVEDSIDSGHATISTAITASSSTSISGSLFDKRRLLIGQPLPNKMTVFPKNKSSTDFSSSGDGNSFYTQWGNQETSNSGRGRVIQDAEERPHSRYLRRAYSSDRSGTSNSQSQAKTYTMERCHSAEMLSVSKRSGGGENEERYSPTDNNANIFNFFKEKTSSSSGSFERPDNNQALSNHLCPGKTPFPFADPTPQTETVQQWFGNLQINAHLRKTTEYDSISPNRDFQGHPDLQKDTSKNAWTDTKVKKNSDASDNAHSVKQQNTMKYMTALHSKPEIIQQECVFGSDPLSEQSKTRGMEPPWGYQNRTLRSITSPLVAHRLKPIRQKTKKAVVSILDSEEVCVELVKEYASQEYVKEVLQISSDGNTITIYYPNGGRGFPLADRPPSPTDNISRYSFDNLPEKYWRKYQYASRFVQLVRSKSPKITYFTRYAKCILMENSPGADFEVWFYDGVKIHKTEDFIQVIEKTGKSYTLKSESEVNSLKEEIKMYMDHANEGHRICLALESIISEEERKTRSAPFFPIIIGRKPGSTSSPKALSPPPSVDSNYPTRERASFNRMVMHSAASPTQAPILNPSMVTNEGLGLTTTASGTDISSNSLKDCLPKSAQLLKSVFVKNVGWATQLTSGAVWVQFNDGSQLVVQAGVSSISYTSPNGQTTRYGENEKLPDYIKQKLQCLSSILLMFSNPTPNFH
B1: binds (His‐PCM1 (a.a. 1–1,128)).
